Reference: article PMC3937676, “Dynamics of Inter-heavy Chain Interactions in Human Immunoglobulin G (IgG) Subclasses Studied by Kinetic Fab Arm Exchange^([image sbox.jpg])” (The Journal of Biological Chemistry, 2014)
Values belong to the molecule of their own block, whether it stands above or below them.

Tests used:
[1] = target: G3*01 Fc fragment (CH2CH3 of IgG3 allele IGHG3*01, G3m(b*), with an IgG4 hinge) (human); assay: FRET or BRET; real-time half-molecule exchange of Fc fragments; 4 μg/ml Fc-488 and Fc-594 in PBS-P, each 1 h at 37 °C with 3 mM DTT, then mixed in equal volumes, 37 °C (IgG4-Fc-V397M/K392N at 10 μg/ml final); kobs taken as the CH3-CH3 dissociation rate (dimer to single chains)
[2] = target: human IgG1 antibody, half-molecule (heavy chain plus light chain) after reduction of the hinge disulfide bonds (human); assay: FRET or BRET; real-time Fab arm (half-molecule) exchange of whole IgG; equimolar DyLight488- and DyLight594-labelled antibody, inter-heavy chain disulfide bonds fully reduced with DTT, 37 °C; first-order exponential fit; kobs taken as the CH3-CH3 dissociation rate (dimer to half-molecules)
[3] = target: human IgG2 antibody, half-molecule (heavy chain plus light chain) after reduction of the hinge disulfide bonds (human); assay: as above
[4] = target: human IgG2 antibody, half-molecule (heavy chain plus light chain) after reduction of the hinge disulfide bonds (human); assay: SEC; fluorescence-assisted HPLC; reduced (10 mM DTT) and alkylated (iodoacetamide) IgG, serial 4-fold dilutions 0.001-300 nM half-molecules with a small fixed dose of the DyLight-488 labelled equivalent, PBS with 0.1 mg/ml certolizumab pegol and 0.02% Tween 20, 37 °C up to 3 days; Superdex 200; dimer to half-molecules
[5] = target: human IgG3 antibody (IGHG3*01), half-molecule (heavy chain plus light chain) after reduction of the hinge disulfide bonds (human); assay: FRET or BRET; real-time Fab arm (half-molecule) exchange of whole IgG; equimolar DyLight488- and DyLight594-labelled antibody, inter-heavy chain disulfide bonds fully reduced with DTT, 37 °C; first-order exponential fit; kobs taken as the CH3-CH3 dissociation rate (dimer to half-molecules)
[6] = target: human IgG4 antibody, half-molecule (heavy chain plus light chain) after reduction of the hinge disulfide bonds (human); assay: as above
[7] = target: the molecule itself; assay: FRET or BRET; real-time half-molecule exchange of Fc fragments; 4 μg/ml Fc-488 and Fc-594 in PBS-P, each 1 h at 37 °C with 3 mM DTT, then mixed in equal volumes, 37 °C (IgG4-Fc-V397M/K392N at 10 μg/ml final); kobs taken as the CH3-CH3 dissociation rate (dimer to single chains)
[8] = target: the molecule itself; assay: FRET or BRET; equilibrium; 2-fold dilutions of equimolar Fc-488 and Fc-594, 2 h at 37 °C with 3 mM DTT; F620/F588 against total half-molecules; homodimerization model; dimer to single chains

- half-life of dissociation (t1/2) [2]: 384 h
- koff [2]: 5e-07 s⁻¹
Molecule: human IgG1 antibody, half-molecule (heavy chain plus light chain) after reduction of the hinge disulfide bonds

- half-life of dissociation (t1/2) [3]: 6.5 h
- koff [3]: 3e-05 s⁻¹
- Kd [4]: 0.023 nM
Molecule: human IgG2 antibody, half-molecule (heavy chain plus light chain) after reduction of the hinge disulfide bonds

- half-life of dissociation (t1/2) [5]: 0.467 h
- koff [5]: 0.0004 s⁻¹
Molecule: human IgG3 antibody (IGHG3*01), half-molecule (heavy chain plus light chain) after reduction of the hinge disulfide bonds

- half-life of dissociation (t1/2) [6]: 6 min
- koff [6]: 0.0018 s⁻¹
Molecule: human IgG4 antibody, half-molecule (heavy chain plus light chain) after reduction of the hinge disulfide bonds

The next lines start with the molecule.

Molecule: G3*01 Fc fragment (CH2CH3 of IgG3 allele IGHG3*01, G3m(b*), with an IgG4 hinge) (domain or fragment)
- fold faster dissociation than G3*06 [1]: > 10 fold

B1: G3*03 Fc fragment (CH2CH3 of IgG3 allele IGHG3*03, G3m(c3c5*), with an IgG4 hinge) (domain or fragment)
chain: ESKYGPPCPSCPAPELLGGPSVFLFPPKPKDTLMISRTPEVTCVVVDVSHEDPEVQFKWYVDGVEVHNAKTKPREEQYNSTFRVVSVLTVLHQDWLNGKEYKCKVSNKALPAPIEKTISKTKGQPREPQVYTLPPSREEMTKNQVSLTCLVKGFYPSDIAVEWESSGQPENNYNTTPPVLDSDGSFFLYSRLTVDKSRWQEGNVFSCSVMHEALHNRFTQKSLSLSPGK
modifications: DyLight 488 or DyLight 594 amine reactive dye (average degree of labeling ~2 for Fc fragments); hinge disulfide bonds reduced with DTT
- fold faster dissociation than IgG4 (m17) [7]: ~15 fold

B2: G2-M397V Fc fragment (CH2CH3 of IgG2 with M397V, IgG4 hinge) (domain or fragment)
chain: ESKYGPPCPSCPAPPVAGPSVFLFPPKPKDTLMISRTPEVTCVVVDVSHEDPEVQFNWYVDGVEVHNAKTKPREEQFNSTFRVVSVLTVVHQDWLNGKEYKCKVSNKGLPAPIEKTISKTKGQPREPQVYTLPPSREEMTKNQVSLTCLVKGFYPSDISVEWESNGQPENNYKTTPPVLDSDGSFFLYSKLTVDKSRWQQGNVFSCSVMHEALHNHYTQKSLSLSPGK
modifications: DyLight 488 or DyLight 594 amine reactive dye (average degree of labeling ~2 for Fc fragments); hinge disulfide bonds reduced with DTT
- koff [7]: < 1e-06 s⁻¹

B3: IgG4-V397M/K392N Fc fragment (domain or fragment)
chain: ESKYGPPCPSCPAPEFLGGPSVFLFPPKPKDTLMISRTPEVTCVVVDVSQEDPEVQFNWYVDGVEVHNAKTKPREEQFNSTYRVVSVLTVLHQDWLNGKEYKCKVSNKGLPSSIEKTISKAKGQPREPQVYTLPPSQEEMTKNQVSLTCLVKGFYPSDIAVEWESNGQPENNYNTTPPMLDSDGSFFLYSRLTVDKSRWQEGNVFSCSVMHEALHNHYTQKSLSLSLGK
modifications: DyLight 488 or DyLight 594 amine reactive dye (average degree of labeling ~2 for Fc fragments); hinge disulfide bonds reduced with DTT
- Kd [8]: 2300 nM
- koff [7]: 0.16 s⁻¹
